Results reported in publication PMC5473941.

Experiments:
[1] = molecular target: microtubules polymerised from tubulin (biotinylated, Alexa 647-labelled, taxol-stabilised) (UniProt P02550); experiment: single-molecule TIRF microscopy; biotinylated, Alexa 647-labelled, taxol-stabilised microtubules held on PLL-PEG-biotin/streptavidin glass; TMR-dynein at 0.29 and 0.58 nM in TAB (25 mM HEPES pH 7.2, 5 mM MgSO4, 1 mM EGTA, 1 mM DTT) with α-casein, 25 mM KCl and MgATP; room temperature; Kd estimated as Koff (reciprocal of the dwell time) over Kon (binding rate) times 802 binding sites per μm
[2] = molecular target: human cytoplasmic dynein-1 heavy chain, wild type, as a subunit of the dynein complex (human) (UniProt Q14204); experiment: negative stain EM with 2D classification; dynein at about 0.05 mg/ml in GF150, uranyl acetate; particles sorted into phi, open or ambiguous classes; mean and SEM of 9 draws of 25 micrographs
[3] = molecular target: human cytoplasmic dynein-1 heavy chain, wild type, as a subunit of the dynein complex (human) (UniProt Q14204); experiment: electron microscopy of single particles; freshly purified protein produced in insect cells; how the proportion was counted is not told

Row | Kd [1] [µM] | percent of molecules in the open form (motor domains apart) [2] [%] | percent of molecules in the phi-particle (motor domains self-dimerised) [2] [%] | percent of molecules in the phi-particle (motor domains self-dimerised) [3] [%] | Substance
1 | 16.4 | – | – | – | full-length human cytoplasmic dynein-1 complex, wild type (from UniProt Q14204 1-4646; Q13409 1-638; O43237 1-492; Q9NP97 1-96; P63167 1-89; P63172 1-113)
2 | – | 22 | 75 | > 85 | human cytoplasmic dynein-1 heavy chain, wild type, as a subunit of the dynein complex, Q14204 1-4646
3 | 5.22 | – | – | – | full-length human cytoplasmic dynein-1 complex with the phi-interface mutations K1610E and R1567E in the heavy chain (from UniProt Q14204 1-4646; Q13409 1-638; O43237 1-492; Q9NP97 1-96; P63167 1-89; P63172 1-113)
